The target in experiment [1] is Concanavalin A (UniProt P02866). The experiment is described as follows: Con A Sepharose affinity chromatography, 100 mg rHA loaded; albumin monomer in eluate by GP-HPLC as percent of load; sample final product.
The target is the same in experiment [2]. The experiment is described as follows: Con A Sepharose affinity chromatography, 100 mg rHA loaded; albumin monomer in eluate by GP-HPLC as percent of load; sample PBA flow through & washings.
The target is the same in experiment [3]. In words: Con A Sepharose affinity chromatography, 100 mg rHA loaded; albumin monomer in eluate by GP-HPLC as percent of load; sample SP-FF2 flow through & washings.
For experiment [4] the target is unchanged. The experiment is described as follows: Con A Sepharose affinity chromatography (Con A assay); bound albumin as percent of load.

Regarding “recombinant human albumin (rHA) from a non-mutant (non-pmt1) Saccharomyces cerevisiae strain, purified by the process of Example 1 (from UniProt P02768 25-609)”, the ConA-binding rHA (% of load) in experiment [1] is 0.28 % of load; in experiment [2] it was 0.55 % of load; in experiment [3] it was 0.32 % of load. For “rHA used to spike the Pichia culture medium (from UniProt P02768 25-609)”, the content of Con A binding material in experiment [4] was 0.57 % (w/w).

As to “rHA purified from the Pichia pastoris culture medium in accordance with the process of Example 1 (from UniProt P02768 25-609)”, the content of Con A binding material in experiment [4] was 0.22 % (w/w).

The record behind these values is patent US9555344.
